Data on 12 molecules can be found in US7838294B2, “Inhibitors of the JNK signal transduction pathway and methods of use” (University of Massachusetts, priority 1997, dated 2010).

Entries after “also recorded” stand apart in the source; their conditions may differ. No end group written: not given here.

What all share (format): binding
Experiment [1] has as its target T1, JNK1 (Homo sapiens, UniProt P45983).
T1 construct: expressed in transfected cells
Put plainly: GST-fusion pull-down from cell lysates, Flag immunoblot: JNK1. As to conditions: for binding to JNK1: 5 μg GST-fusion protein on glutathione-Sepharose, Flag-JNK1 lysate, one hour 4° C.; for level of binding to JNK1 compared with JNK2: GST pull-down, Flag immunoblot. As for the experimental part:
(§1) To test whether JIP-1 binding to JNK is also isoform-dependent, a binding assay was utilized. Cell lysates (1 ml in TLB) containing JNK1, JNK2, or p38 MAP kinase, each tagged with the Flag epitope, were incubated with 5 μg GST-fusion proteins pre-bound to 10 μl glutathione-Sepharose. The GST fusion proteins used contain residues 127-202 (SEQ ID NO:15), 203-281 (SEQ ID NO:16), 164-240 (SEQ ID NO:17), or 127-281 (SEQ ID NO:4) of JIP-1. The GST-ATF2 fusion protein contains residues 1-109 of ATF2, and the GST-Jun fusion protein contains residues 1-79 of c-Jun. After incubation for one hour at 4° C. and three washes with TLB, bound proteins were detected by protein immunoblot analysis with the M2 monoclonal antibody, which is specific for the Flag epitope. Dérijard, et al., supra; Sluss et al., supra; Gupta et al., supra. […] This finding is consistent with the results of previous studies. In contrast, when GST-JIP-1 fusion proteins containing residues 127-202 or 127-281 of JIP-1 were tested in the assay, these proteins bound both JNK1 and JNK2.
(§2) The GST-JIP-1 fusion proteins containing various portions of the JIP-1 gene were used to define regions of JIP-1 that are required for JNK interaction. A GST-JIP-1 fusion protein containing residues 127-281 of JIP-1 bound both JNK1 and JNK2.
(§3) To more precisely define the JIP-1 sequence required for JNK binding activity, additional […] fusion proteins were constructed. These fusion proteins contained residues 135-202 (SEQ ID NO:18), 144-202 (SEQ ID NO:19), 154-202 (SEQ ID NO:20), 164-202 (SEQ ID NO:21), 127-143 (SEQ ID NO:22), 127-153 (SEQ ID NO:23), or 127-163 (SEQ ID NO:24) of JIP-1. Proteins containing residues 127-202, 135-202, 144-202, […], and 127-163 all bound both JNK1 and JNK2. Thus, JIP-1 residues 144-163 are important for the interaction of JIP-1 with JNK.

Experiment [2] deals with T2, JNK2 (Homo sapiens, UniProt P45984).
T2 construct: expressed in transfected cells
The experiment in a line: GST-fusion pull-down from cell lysates, Flag immunoblot: JNK2. As to conditions: 5 μg GST-fusion protein on glutathione-Sepharose, Flag-JNK2 lysate, one hour 4° C. As for the experimental part: as §1, §2, §3

In experiment [3] the target is T3, JIP-1-JNK interaction (JNK1) (Homo sapiens, UniProt P45983).
T3 construct: expressed in transfected cells; GST-JIP-1 from a bacterial pGEX-3X vector
T3 sequence (P45983 1-384 isoform P45983-2): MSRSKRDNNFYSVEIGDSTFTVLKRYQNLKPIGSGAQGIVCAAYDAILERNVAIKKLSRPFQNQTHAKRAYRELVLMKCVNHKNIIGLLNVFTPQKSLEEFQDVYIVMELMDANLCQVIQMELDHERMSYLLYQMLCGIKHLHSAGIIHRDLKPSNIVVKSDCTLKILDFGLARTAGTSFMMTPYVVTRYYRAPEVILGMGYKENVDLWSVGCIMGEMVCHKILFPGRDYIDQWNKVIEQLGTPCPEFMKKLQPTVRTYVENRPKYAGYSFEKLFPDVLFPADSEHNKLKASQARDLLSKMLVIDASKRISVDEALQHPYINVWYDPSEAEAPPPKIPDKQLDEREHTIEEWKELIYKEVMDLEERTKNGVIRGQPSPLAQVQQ
Put plainly: Synthetic peptide competition of JIP-1-JNK interaction (GST-JIP-1 127-281 pull-down). As to conditions: for effect of peptide on JIP-1 binding to JNK1: peptide 0, 4, 8, 16, 32, and 64 μg/ml, GST-JIP-1 (residues 127-281); for inhibition of JIP-1 binding to JNK by peptide: synthetic peptides 64 μg/ml, JNK1 binding to GST-JIP-1 residues 127-281. As for the experimental part: The effect of increasing concentrations (0, 4, 8, 16, 32, and 64 μg/ml) of a synthetic peptide corresponding to JIP-1 residues 148-174 (SEQ. ID NO:3) or a control peptide having a scrambled sequence (SEQ ID NO:12) on JIP-1-JNK interaction was examined. Peptides were synthesized using an Applied Biosystems machine. Cell lysates containing Flag epitope-tagged JNK were incubated with GST-JIP-1 (residues 127-281) prebound to glutathione-Sepharose. The beads were washed, and bound proteins were detected by protein immunoblot analysis with a Flag-specific antibody.
The JNK binding domain of JIP-1 contains three amino acids, Lys-155, Thr-159, and Leu-160, that are conserved in the JNK binding domains of ATF2 and c-Jun (FIG. 2). A hydrophobic amino acid, Leu, is found at residue 162 of JIP-1. ATF2 and c-Jun also contain hydrophobic amino acids (ATF2, Phe; c-Jun, Leu) in the position corresponding to residue 162 of JIP-1. To test if these conserved residues are involved in JNK binding, the wild type JIP-1 JBD (residues 148-174) was substituted with glycines in these positions to produce the peptides shown in FIG. 3 (SEQ ID NOs:7-11). The mutant peptides are identical to the wild type peptide except for the indicated glycine substitutions. The binding of JNK1 to GST, as well as a GST fusion protein containing JIP-1 residues 127-281, was examined in the absence and presence of the synthetic peptides (64 μg/ml). A peptide with a scrambled sequence (SEQ ID NO:12) was used as a control. […] In contrast, the control peptide caused no change in JNK binding.
Peptides suspected of having JIP-1 activity can be tested in the JNK binding assay described supra. Peptides are synthesized by methods that are well known to those skilled in the art; for example, using an Applied Biosystems synthesizer. Cell lysates containing Flag epitope-tagged JNK are incubated with GST-JIP-1 (residues 127-281) bound to glutathione-Sepharose, either with or without synthetic peptides (0, 4, 8, 16, 32 or 64 μg/ml), for one hour at 4° C. The beads are washed in TLB, and the bound proteins are detected by protein immunoblot analysis with a Flag-specific antibody, e.g., M2. Synthetic peptides with JIP-1 activity are those which inhibit the interaction of JIP-1 with JNK, as detected in this assay.

T1 sequence (P45983 1-384 isoform P45983-2): as above

Regarding “GST-JIP-1 residues 127-163: GST fusion protein containing residues 127-163 of JIP-1 (PKAESNQDPAPRSQGQGPGTGSGDTYRPKRPTTLNLF; also: GST fusion; UniProt Q9WVI9 127-163, looked up, fragment)”, the “binding to JNK1” value in experiment [1] is “bound”. For the same molecule, the “binding to JNK2” value in experiment [2] is recorded as “bound”.
As to “SGDTYRPKRPTTLNLFPQVPRSQDTLN [JIP-1 residues 148-174, synthetic peptide corresponding to JIP-1 residues 148-174, core of the JBD]”, in experiment [3], the “effect of peptide on JIP-1 binding to JNK1” value is on record as “dose-dependent decrease” and the “inhibition of JIP-1 binding to JNK by peptide” value is reported as “dose-dependent inhibition”.
For the molecule “GST-JIP-1 residues 154-202: GST fusion protein containing residues 154-202 of JIP-1 (PKRPTTLNLFPQVPRSQDTLNNNSLGKKHSWQDRVSRSSSPLKTGEQTP; also: GST fusion; UniProt Q9WVI9 154-202, looked up, fragment)”, the “binding to JNK1” value in experiment [1] is given as “bound”. Besides, the “binding to JNK2” value in experiment [2] is reported as “bound”.
Take “GST-JIP-1 residues 144-202: GST fusion protein containing residues 144-202 of JIP-1 (PGTGSGDTYRPKRPTTLNLFPQVPRSQDTLNNNSLGKKHSWQDRVSRSSSPLKTGEQTP; also: GST fusion; UniProt Q9WVI9 144-202, looked up, fragment)”: in experiment [1], the “binding to JNK1” value was “bound”. Moreover, in experiment [2], the “binding to JNK2” value is given as “bound”.
Turning to “SEQ ID NO:12: control peptide having a scrambled sequence (NSLGTDDTQYSRRPPKVRQPNPTFTLL) [reference compound]”, in experiment [3], the “effect of peptide on JIP-1 binding to JNK1” value was “no effect” and the “inhibition of JIP-1 binding to JNK by peptide” value is “no change”.

B1: GST-JIP-1 residues 164-240: GST fusion protein containing residues 164-240 of JIP-1 (central region) (protein, UniProt Q9WVI9 164-240, looked up, fragment)
chain: PQVPRSQDTLNNNSLGKKHSWQDRVSRSSSPLKTGEQTPPHEHICLSDELPPQGSPVPTQDRGTSTDSPCRRSAATQ
modifications: GST fusion
For the molecule B1, the “binding to JNK1” value in experiment [1] is reported as “No JNK binding was detected”. In addition, the “binding to JNK2” value in experiment [2] was “No JNK binding was detected”.

B2: GST-JIP-1 residues 127-202: GST fusion protein containing residues 127-202 of JIP-1 (amino terminal region) (protein, UniProt Q9WVI9 127-202, looked up, fragment)
chain: PKAESNQDPAPRSQGQGPGTGSGDTYRPKRPTTLNLFPQVPRSQDTLNNNSLGKKHSWQDRVSRSSSPLKTGEQTP
modifications: GST fusion
Take B2: the “binding to JNK1” value in experiment [1] is on record as “bound; also recorded: JNK binding activity was observed”. Also, the “binding to JNK2” value in experiment [2] is “bound; also recorded: JNK binding activity was observed”.

B3: GST-Jun: GST fusion protein containing residues 1-79 of c-Jun (protein)
chain: MTAKMETTFYDDALNASFLPSESGPYGYSNPKILKQSMTLNLADPVGSLKPHLRAKNSDLLTSPDVGLLKLASPELERL
modifications: left off: a dimerising Fc or GST
notes: GST fusion protein containing residues 1-79 of c-Jun
In the case of B3, the “level of binding to JNK1 compared with JNK2” value in experiment [1] is “greater than binding to JNK2”.

B4: GST-JIP-1 residues 135-202: GST fusion protein containing residues 135-202 of JIP-1 (protein, UniProt Q9WVI9 135-202, looked up, fragment)
chain: PAPRSQGQGPGTGSGDTYRPKRPTTLNLFPQVPRSQDTLNNNSLGKKHSWQDRVSRSSSPLKTGEQTP
modifications: GST fusion
As to B4, the “binding to JNK1” value in experiment [1] was “bound”. In addition, the “binding to JNK2” value in experiment [2] is “bound”.

B5: GST-ATF2: GST fusion protein containing residues 1-109 of ATF2 (protein)
chain: MKFKLHVNSARQYKDLWNMSDDKPFLCTAPGCGQRFTNEDHLAVHKHKHEMTLKFGPARNDSVIVADQTPTPTRFLKNCEEVGLFNELASPFENEFKKASEDDIKKMPL
modifications: left off: a dimerising Fc or GST
notes: GST fusion protein containing residues 1-109 of ATF2
Take B5: the “level of binding to JNK1 compared with JNK2” value in experiment [1] is given as “greater than binding to JNK2”.

B6: GST-JIP-1 residues 127-281: GST fusion protein containing residues 127-281 of JIP-1 (protein)
chain: PKAESNQDPAPRSQGQGPGTGSGDTYRPKRPTTLNLFPQVPRSQDTLNNNSLGKKHSWQDRVSRSSSPLKTGEQTPPHEHICLSDELPPQGSPVPTQDRGTSTDSPCRRSAATQMAPPSGPPATAPGGRGHSHRDRIHYQADVRLEATEEIYLTP
modifications: left off: a dimerising Fc or GST
B6: the “binding to JNK1” value in experiment [1] is “bound”. For the same molecule, the “binding to JNK2” value in experiment [2] was “bound”.

B7: GST-JIP-1 residues 203-281: GST fusion protein containing residues 203-281 of JIP-1 (carboxy terminal region) (protein, UniProt Q9WVI9 203-281, looked up, fragment)
chain: PHEHICLSDELPPQGSPVPTQDRGTSTDSPCRRSAATQMAPPSGPPATAPGGRGHSHRDRIHYQADVRLEATEEIYLTP
modifications: GST fusion
As to B7, the “binding to JNK1” value in experiment [1] is “No JNK binding was detected”. In addition, in experiment [2], the “binding to JNK2” value was “No JNK binding was detected”.
